Assay results as given in paper PMC11098746 (2024).

T1: ADP317
T1 chain: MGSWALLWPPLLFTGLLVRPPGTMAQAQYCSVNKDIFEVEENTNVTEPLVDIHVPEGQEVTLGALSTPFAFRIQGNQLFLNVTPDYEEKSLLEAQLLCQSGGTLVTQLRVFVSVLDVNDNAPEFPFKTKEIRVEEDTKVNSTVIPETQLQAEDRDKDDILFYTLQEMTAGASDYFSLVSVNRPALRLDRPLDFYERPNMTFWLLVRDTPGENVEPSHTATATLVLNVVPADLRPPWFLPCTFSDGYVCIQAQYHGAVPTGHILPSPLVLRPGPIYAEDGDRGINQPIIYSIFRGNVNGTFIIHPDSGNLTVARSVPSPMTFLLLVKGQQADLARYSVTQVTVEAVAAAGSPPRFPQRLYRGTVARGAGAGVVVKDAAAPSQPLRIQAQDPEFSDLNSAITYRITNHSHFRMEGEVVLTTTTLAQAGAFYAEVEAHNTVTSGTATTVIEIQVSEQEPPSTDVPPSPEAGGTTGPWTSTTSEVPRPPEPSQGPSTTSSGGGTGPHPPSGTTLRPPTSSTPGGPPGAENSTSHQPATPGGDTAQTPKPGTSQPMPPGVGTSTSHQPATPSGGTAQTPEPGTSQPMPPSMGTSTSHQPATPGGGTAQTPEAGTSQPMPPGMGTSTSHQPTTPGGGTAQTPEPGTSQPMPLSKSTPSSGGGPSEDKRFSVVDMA

T2: ADP141
T2 chain: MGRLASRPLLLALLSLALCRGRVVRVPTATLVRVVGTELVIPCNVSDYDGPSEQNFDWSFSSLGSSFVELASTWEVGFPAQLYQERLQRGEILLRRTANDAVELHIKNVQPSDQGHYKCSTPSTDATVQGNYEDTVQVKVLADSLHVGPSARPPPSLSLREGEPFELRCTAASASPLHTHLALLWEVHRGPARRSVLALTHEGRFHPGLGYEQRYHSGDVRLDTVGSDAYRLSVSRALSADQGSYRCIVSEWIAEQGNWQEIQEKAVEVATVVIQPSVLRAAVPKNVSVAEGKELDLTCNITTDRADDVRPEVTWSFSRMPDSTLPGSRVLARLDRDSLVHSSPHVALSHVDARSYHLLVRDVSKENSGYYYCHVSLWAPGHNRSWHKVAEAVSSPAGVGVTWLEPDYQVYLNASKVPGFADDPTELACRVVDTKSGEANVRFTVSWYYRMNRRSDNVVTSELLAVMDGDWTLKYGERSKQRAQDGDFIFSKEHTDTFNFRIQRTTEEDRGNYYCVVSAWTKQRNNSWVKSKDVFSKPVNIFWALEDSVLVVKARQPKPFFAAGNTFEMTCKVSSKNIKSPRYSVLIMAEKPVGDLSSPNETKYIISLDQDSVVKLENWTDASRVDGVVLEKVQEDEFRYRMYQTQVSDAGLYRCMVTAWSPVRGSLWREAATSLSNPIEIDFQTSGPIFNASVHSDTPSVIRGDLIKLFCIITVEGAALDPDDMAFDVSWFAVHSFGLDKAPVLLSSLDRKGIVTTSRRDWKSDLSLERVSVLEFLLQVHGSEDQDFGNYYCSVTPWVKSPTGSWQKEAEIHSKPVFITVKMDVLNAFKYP

T3: ADP276
T3 chain: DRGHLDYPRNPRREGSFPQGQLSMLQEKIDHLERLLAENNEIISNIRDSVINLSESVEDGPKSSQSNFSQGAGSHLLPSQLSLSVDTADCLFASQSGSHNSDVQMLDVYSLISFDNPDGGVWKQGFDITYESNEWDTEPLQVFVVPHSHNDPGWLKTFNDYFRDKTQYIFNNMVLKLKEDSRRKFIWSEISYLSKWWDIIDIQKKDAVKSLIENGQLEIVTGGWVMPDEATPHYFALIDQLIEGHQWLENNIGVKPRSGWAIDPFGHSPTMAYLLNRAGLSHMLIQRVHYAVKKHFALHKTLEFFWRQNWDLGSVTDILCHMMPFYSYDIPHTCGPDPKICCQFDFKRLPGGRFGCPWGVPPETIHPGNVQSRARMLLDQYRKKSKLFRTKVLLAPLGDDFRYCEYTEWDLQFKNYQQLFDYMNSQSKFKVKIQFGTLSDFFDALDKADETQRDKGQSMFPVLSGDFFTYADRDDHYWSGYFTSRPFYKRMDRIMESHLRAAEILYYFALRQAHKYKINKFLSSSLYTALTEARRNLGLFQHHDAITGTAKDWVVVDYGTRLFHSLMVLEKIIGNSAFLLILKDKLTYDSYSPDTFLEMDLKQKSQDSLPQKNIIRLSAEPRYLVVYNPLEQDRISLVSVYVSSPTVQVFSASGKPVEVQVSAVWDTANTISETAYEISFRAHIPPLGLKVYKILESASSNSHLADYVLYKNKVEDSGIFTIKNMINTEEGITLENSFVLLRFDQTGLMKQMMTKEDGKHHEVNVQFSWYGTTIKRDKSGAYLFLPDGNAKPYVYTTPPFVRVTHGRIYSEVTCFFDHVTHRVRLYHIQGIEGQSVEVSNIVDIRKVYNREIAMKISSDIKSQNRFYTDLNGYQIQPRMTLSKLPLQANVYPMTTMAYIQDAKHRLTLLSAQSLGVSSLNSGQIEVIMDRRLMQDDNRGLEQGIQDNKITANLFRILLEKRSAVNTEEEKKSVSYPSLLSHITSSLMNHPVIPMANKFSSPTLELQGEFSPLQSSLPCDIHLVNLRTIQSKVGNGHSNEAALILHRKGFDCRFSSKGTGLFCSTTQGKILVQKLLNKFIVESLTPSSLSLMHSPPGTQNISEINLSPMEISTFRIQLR

B1: ADP227 (protein)
chain: LKVPIENAPFVFNKKENDIKYFLDKETPDDFLSNNAYSLDITLENFPNPFFHPSLCNRYGFKFSYICDPNKILSRNIADQIEEILNYQRRNSKHFCVDKEVPYVLGVALINKLPYGISADTFASQIFEYWKLSNKDCNDGVLLFFVKEDTHFILKWKKGAQSIINFRTATSMNKAFNQYLRKYSLEYSILSAVKLTSQYLTEEIIPPTQTAQK
modifications: bait human Fc-tagged dimer; N-glycosylation sequons mutated in Plasmodium baits
B2: ADP168 (protein)
chain: NNIKLNDKENINFESYFNKRTNEENVLNKNVAKEMGDTFVAHKAIELNINHHHVNNDKEFNNNNNNKHQPYYHNEHDKKFSESLKAHMDHLKILNNDLKQHIDKKERNEIYENNDLKKYIIKEIQNNKYLNKEKKSSEDIQILEEHSKKLQKEIHEWLESVNNIEEKSNILKNIKSQLLNNIASLNHALSEEIKNINDIKELQKQQNDLFSENWLYFLPSSSDYLLNEKKKNLYDNQDNSMKDDINNNDKYNIFNYLQNVQDKDNQYEVMKQDNNNIHSGSS
modifications: bait human Fc-tagged dimer; N-glycosylation sequons mutated in Plasmodium baits

Experiments:
Assay in all cases: AVEXIS screen signal:noise (double-corrected)
[1] = biological target: T1, ADP317
[2] = biological target: T2, ADP141
[3] = biological target: T3, ADP276
[4] = biological target: ADP363

| Binder | binding score [1] | binding score [2] | binding score [3] | binding score [4] |
| --- | --- | --- | --- | --- |
| B1 | 5.21 | 6.72 |  |  |
| B2 |  |  | 5.43 | 198 |
